The record followed here is the supplement of paper PMC9170038.

For this data set, the system named is MS2 coat protein. In words: apparent KD of MS2 coat protein; designed switch direction (-1 OFF switch, 1 ON switch): -1; higher = weaker reporter binding. The method, boiled down: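 The apparent KD reported per design is the median over clusters of curve fits to normalised cluster fluorescence. The RNA switches were transcribed on Illumina chips by stalled E. coli RNA polymerase. SNAP-549-labelled MS2 coat protein was titrated from 0.7 or 1.5 nM, doubling up to 3 µM, in Tris-HCl pH 7.5 buffer containing KCl, MgCl2, BSA, DTT, tRNA and Tween-20, with no input, 200 uM small-molecule ligand, or an oligonucleotide input.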

Where [1] appears, read: input ligand: microRNA oligo, concentration not stated.
The mark [2] stands for this setting: Eterna round: R95, input ligand: FMN 200 uM.
Where [3] appears, read: Eterna round: R95, input ligand: microRNA oligo, concentration not stated.
[4] abbreviates: Eterna round: R95, input ligand: none.

For “AGAGUGCUGCGAGGAUAUACAUGAGGAUCACCCAUGUAAACGUGUGAGGCAAAGCCUCACACGAUGUAGAAGGCGCAGUACUCA [Mat - Exclusion NG 2 - Mod of JL - D37] (Eterna round: R96, puzzle: Exclusion NG 2)”, the “apparent KD of MS2 coat protein” value (input ligand: FMN 200 uM) was 19.6 nM, the “apparent KD of MS2 coat protein” value under setting [1] is 11.7 nM and the “apparent KD of MS2 coat protein” value (input ligand: none) turned out to be 21.5 nM.
“AGAGUGCUGCGAGGAUAUACAUGAGGAUCACCCAUGUGGUCCUGUGAGGGAAAACCUCACAGGAUGUAGAAGGCGCAGUACUCA [Mat - Exclusion NG 2 - Mod of JL - D47] (Eterna round: R96, puzzle: Exclusion NG 2)”: the “apparent KD of MS2 coat protein” value (input ligand: FMN 200 uM) was 53.2 nM, the “apparent KD of MS2 coat protein” value under setting [1] was determined as 10.9 nM and the “apparent KD of MS2 coat protein” value (input ligand: none) turned out to be 16.3 nM.
For the sequence “AGAUAGUCAGGAUAUUAGUAAUAAAAGGAUAAUAAUAUUACUGAGAAGGGACAUGAGGAUCACCCAUGUAAUAU [JR_Ex4_Sub061] (Eterna round: R97, puzzle: Exclusion 4)”, the “apparent KD of MS2 coat protein” value reads like this: (input ligand: FMN 200 uM) 44.5 nM; (input ligand: none) 27.5 nM.
Take “AGAUAGUGCAGAGGAUAUCGUAAUAGAAAGAAUCGAGAAGGCUGACAUGAGGAUCACCCAUGUGAUGUCUUGAGACUACAUGGU [Prohibition 34 - Jieux - Exclusion NG 1] (Eterna round: R96, puzzle: Exclusion NG 1)”: the “apparent KD of MS2 coat protein” value is, setting by setting: (input ligand: FMN 200 uM) 460 nM; under setting [1], 62.8 nM; (input ligand: none) 83.1 nM.
For “AGAUAGUGCUGAGGAUAUCUUAAUAGAAAGAAUAGAGAAGGCGGACAUGAGGAUCACCCAUGUGAGGUCUUGAGACUACAUGGU [Prohibition 36 - Jieux - Exclusion NG 1] (Eterna round: R96, puzzle: Exclusion NG 1)” the same measures were 366 nM, 71.6 nM and 135 nM.
Consider “AGAUCACAUGAGGAUCACCCAUGUCAGGAUAUCGUCACUGGAGCUGCGGCUCCAGUGACGAGAAGGGACAUAAU [E1/2-A3] (Eterna round: R97, puzzle: Exclusion 1)”, for which the “apparent KD of MS2 coat protein” value (input ligand: FMN 200 uM) worked out at 252 nM and the “apparent KD of MS2 coat protein” value (input ligand: none) came to 326 nM.
For “AGAUCACAUGAGGAUCACCCAUGUGAGGAUAUCGACUGAACAGCUUCGGCUGUUCAGUCGAGAAGGCACAAUUA [EX1 #41] (Eterna round: R97, puzzle: Exclusion 1)”, in that order: 45.1 nM and 23.8 nM.
Regarding “AGAUGGAAGCAGGAUAUGCUUGUAUAAUUGAAAGCAGAAGGGCUAACAUGAGGAUCACCCAUGUAAGAGGUGUA [JR_E6_Sub059] (puzzle: Exclusion 6)”, the “apparent KD of MS2 coat protein” value by setting is: under setting [2], 302 nM; under setting [3], 282 nM; under setting [4], 352 nM.
For “AGAUGGCGAGGAUAUACAUGAGGAUCACCCAUGUGAGAGAAGAAAGUGAGGAAGAAAAGUAGAAGGCGCUGUCA [Mat - Exclusion 3 - Mod of Salish D11] (puzzle: Exclusion 3)” the same measures were 184 nM, 54.4 nM and 60 nM.
For “AGAUGUAGAUACCGAUCCUACAUGAGGAUCACCCAUGUAGCUAGACGUGCUCGCGUGGCUCGUCAGACUACCAGUAG [salish99_TOv1_r3_091] (puzzle: Sensor v3, turn-off variant 1)” the same measures were 243 nM, 211 nM and 281 nM.
“AGAUGUAGAUACCGAUCCUACAUGAGGAUCACCCAUGUAGCUAGACGUGCUCGCGUUGCUCGUCAGACUACCAGUAG [salish99_TOv1_r3_088] (puzzle: Sensor v3, turn-off variant 1)”: the “apparent KD of MS2 coat protein” value is 279 nM under setting [2], 286 nM under setting [3] and 382 nM under setting [4].
With “AGAUGUUAUAAGGAUAUGCAGGCCAUCGCAUCAGCAGAAGGUGUAACAUGAGGAUCACCCAUGUAAACGAACUG [Eternabot (L1) Solution 44] (Eterna round: R97, puzzle: Exclusion 6)”, the “apparent KD of MS2 coat protein” value runs as follows: (input ligand: FMN 200 uM) 28.9 nM; (input ligand: none) 22.8 nM.
For the sequence “AGCAUGCUAGGAUAUACGGGACAUUAGGGUUUGUCGUGUGGACAUGAGGAUCACCCAUGUAGAAGGAGCGUGCA [Mat - Exclusion 2 - Mod of Hyphema - D92] (puzzle: Exclusion 2)”, the “apparent KD of MS2 coat protein” value under setting [3] was 46.5 nM.
As to “AGCAUGGUAGGAUAUACGGAACAUUAGGGUUUGUUAUGUGGACAUGAGGAUCACCCAUGUAGAAGGGCCGUGCA [Mat - Exclusion 2 - Mod of JL - D80] (puzzle: Exclusion 2)”, the “apparent KD of MS2 coat protein” value under setting [3] was 32.3 nM.
Still for that read-out and setting: in the case of “AGCAUGUAAGGAUAUGUAACGCGGCUUUCAUUCGCCGUCCCACAGAAGGUACAUGAGGAUCACCCAUGUGCUCC [Solaisorin] (puzzle: Exclusion 4)” it was 33.3 nM.
Turning to “AGCGAAGAGACAGGAUAUGAGAAUAGAUAGAGCUCAGAAGGGUCACAUGAGGAUCACCCAUGUAAAGUCUUGAGGCUGCGUGGU [Prohibition 10 - Jieux - Exclusion NG 1] (Eterna round: R96, puzzle: Exclusion NG 1)”, the “apparent KD of MS2 coat protein” value (input ligand: FMN 200 uM) was 123 nM, the “apparent KD of MS2 coat protein” value under setting [1] turned out to be 41.1 nM and the “apparent KD of MS2 coat protein” value (input ligand: none) stood at 61.7 nM.
In the case of “AGCGACCAAGGAUAUACAUGAGGAUCACCCAUGUCGGCGACCUUCCUGGGAUUUCUUAGUAGAAGGUGGUCAAU [Gesodieddi] (puzzle: Exclusion 3)”, the “apparent KD of MS2 coat protein” value under setting [3] amounted to 35.2 nM.
With “AGCGCCAUCGUGAGAUGGCGUAUUACAUGAGGAUCACCCAUGUAGGAUAUCGAUUGCUUUGCAGUCGAGAAGGACAUGUUCUAG [JL ENG3 3.80 Mod A] (Eterna round: R96, puzzle: Exclusion NG 3)”, the “apparent KD of MS2 coat protein” value reads like this: (input ligand: FMN 200 uM) 95.5 nM; under setting [1], 35.9 nM; (input ligand: none) 60.6 nM.
Consider “AGCGCCAUGCUCGUCUUACACAUGAGGAUCACCCAUGUUGGGUCUCAGAUGCGGUAAUAGCCCGUUGAAUCUAGUGG [Eternabot (L1) Solution 38] (Eterna round: R97, puzzle: Sensor, turn-off variant 1)”, for which the “apparent KD of MS2 coat protein” value (input ligand: FMN 200 uM) amounted to 182 nM and the “apparent KD of MS2 coat protein” value (input ligand: none) was determined as 191 nM.
Consider “AGCUAACGAACAGGAUAUCCAAAGCGAUAGCAGGGAGAAGGGUUCAGAACUUGAGGAUCACCCAAGUGGGCUGAGCUCGGGAAA [Mutated MS2 EX1.3] (Eterna round: R96, puzzle: Exclusion NG 1)”, for which the “apparent KD of MS2 coat protein” value (input ligand: FMN 200 uM) stood at 12 nM, the “apparent KD of MS2 coat protein” value under setting [1] turned out to be 12.6 nM and the “apparent KD of MS2 coat protein” value (input ligand: none) is 20.9 nM.
For the sequence “AGCUAGAUAGGAUAUGCCCGGGAUAACAUGAGGAUCACCCAUGUGGCCGAAUCAAAUCCAGCAGAAGGGUUUGGGA [Mod of ViennaUCT 12 - Jieux - Exclusion 5] (Eterna round: R97, puzzle: Exclusion 5)”, the “apparent KD of MS2 coat protein” value (input ligand: FMN 200 uM) came out at 30.8 nM and the “apparent KD of MS2 coat protein” value (input ligand: none) turned out to be 38.7 nM.
Turning to “AGCUAGUGAGGAUAUACAAGAAUAUAAACGAACAUAAAGGGACAUGAGGAUCACCCAUGUAGAAGGCACUAGCA [Diamond 73] (Eterna round: R96, puzzle: Exclusion 2)”, under setting [1], the “apparent KD of MS2 coat protein” value worked out at 29.3 nM.
On to “AGCUAGUGCCGAGGAUAUACAUGAGGAUCACCCAUGUAGGCGUGAGGCUUUGUCUCACGCGAGAUGUAGAAGGCGGCGUUGGCA [JL ENG2 1.52] (Eterna round: R96, puzzle: Exclusion NG 2)”, for which the “apparent KD of MS2 coat protein” value is 60.5 nM (input ligand: FMN 200 uM), 14.1 nM under setting [1] and 21.7 nM (input ligand: none).
Take “AGCUGACGAGGAUAUACAUGAGGAUCACCCAUGUAAGAUCAGCGACGAUAGUCGCAAUGUAGAAGGCGUCAGCU [E3/10-A2] (Eterna round: R97, puzzle: Exclusion 3)”: the “apparent KD of MS2 coat protein” value runs as follows: (input ligand: FMN 200 uM) 299 nM; (input ligand: none) 30.1 nM.
“AGCUGUGGCCAAGGAUAUCUAGCCUUAAAUACCGACGUAUAGUCGGACAUGAGGAUCACCCAUGUGGAGAAGGUGGUCUCAGCA [Eli eng2 - 044] (Eterna round: R96, puzzle: Exclusion NG 2)”: the “apparent KD of MS2 coat protein” value (input ligand: FMN 200 uM) came to 82 nM, the “apparent KD of MS2 coat protein” value under setting [1] was 53 nM and the “apparent KD of MS2 coat protein” value (input ligand: none) was determined as 74.3 nM.
Regarding “AGCUGUGGCCGAGGAUAUACACAUGAGGAUCACCCAUGUAGGCGCGGAUACGCGCUAAAAUAAGUGUAGAAGGCGGUCUCAGCA [Eli eng2 - 056] (Eterna round: R96, puzzle: Exclusion NG 2)”, the “apparent KD of MS2 coat protein” value reads like this: (input ligand: FMN 200 uM) 20.1 nM; under setting [1], 17.4 nM; (input ligand: none) 18.1 nM.
For “AGCUGUGGCCGAGGAUAUCACGAACCAUGGAAAACCAUGGAACUCCUACAUGAGGAUCACCCAUGUGAGAAGGCGGUCUCAGCA [Eli eng2 - 020] (Eterna round: R96, puzzle: Exclusion NG 2)” the same measures were 109 nM, 33.4 nM and 52.1 nM.
As to “AGCUGUGGCCGAGGAUAUCUAACUUCAAAUACCGACGUAUAGUCGGACAUGAGGAUCACCCAUGUAGAGAAGGCGGUCUCAGCA [Eli eng2 - 037] (Eterna round: R96, puzzle: Exclusion NG 2)”, the “apparent KD of MS2 coat protein” value under setting [1] turned out to be 12.3 nM.
The same measure, in the same setting: in the case of “AGCUGUGGCCGAGGAUAUCUGAACCUUCAAACCGAAAUAUAAUCGGACAUGAGGAUCACCCAUGUAGAGAAGGCGGUCUCAGCA [Eli eng2 - 060] (Eterna round: R96, puzzle: Exclusion NG 2)” it was 9.95 nM.
Still for that read-out and setting: in the case of “AGCUGUGGCCGAGGAUAUCUGAACUCAAUAACCGAAAUAUAAUCGGACAUGAGGAUCACCCAUGUAGAGAAGGCGGUCUCAGCA [Eli eng2 - 080] (Eterna round: R96, puzzle: Exclusion NG 2)” it was 24.2 nM.
